Experimental data from paper PMC4569712, “IRTKS negatively regulates antiviral immunity through PCBP2 sumoylation-mediated MAVS degradation” (Nature Communications, 2015).

Biological target: T1, Recombinant GST-IRTKS (mouse, UniProt Q9DBJ3 1-514)
T1 construct: IRTKS, cloned from a murine bone marrow library, subcloned into pGEX-6p-1; also called recombinant IRTKS; source: E. coli (pGEX-6p-1), recombinant
T1 sequence (looked up): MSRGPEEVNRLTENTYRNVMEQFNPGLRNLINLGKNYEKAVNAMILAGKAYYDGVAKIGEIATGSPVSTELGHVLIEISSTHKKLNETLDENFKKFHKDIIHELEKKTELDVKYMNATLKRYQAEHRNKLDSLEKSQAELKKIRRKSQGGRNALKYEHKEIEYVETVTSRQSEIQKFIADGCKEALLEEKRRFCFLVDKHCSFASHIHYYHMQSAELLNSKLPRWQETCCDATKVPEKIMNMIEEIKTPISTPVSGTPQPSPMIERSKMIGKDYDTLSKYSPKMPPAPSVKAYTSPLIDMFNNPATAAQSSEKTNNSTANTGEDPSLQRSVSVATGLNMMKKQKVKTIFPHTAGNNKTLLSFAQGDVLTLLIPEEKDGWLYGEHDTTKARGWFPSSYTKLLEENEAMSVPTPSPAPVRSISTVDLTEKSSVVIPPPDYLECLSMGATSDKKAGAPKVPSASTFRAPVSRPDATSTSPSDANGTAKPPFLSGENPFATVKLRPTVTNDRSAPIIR
Test: pull-down; GST pull-down: recombinant GST-tagged IRTKS or its truncations incubated with the recombinant partner
Conditions: both partners purified

B1: Recombinant PCBP2 (natural protein, mouse, UniProt Q61990 1-362, looked up)
chain: MDTGVIEGGLNVTLTIRLLMHGKEVGSIIGKKGESVKKMREESGARINISEGNCPERIITLAGPTNAIFKAFAMIIDKLEEDISSSMTNSTAASRPPVTLRLVVPASQCGSLIGKGGCKIKEIRESTGAQVQVAGDMLPNSTERAITIAGIPQSIIECVKQICVVMLESPPKGVTIPYRPKPSSSPVIFAGGQDRYSTGSDSASFPHTTPSMCLNPDLEGPPLEAYTIQGQYAIPQPDLTKLHQLAMQQSHFPMTHGNTGFSGIESSSPEVKGYWAGLDASAQTTSHELTIPNDLIGCIIGRQGAKINEIRQMSGAQIKIANPVEGSTDRQVTITGSAASISLAQYLINVRLSSETGGMGSS
notes: PCBP2, cloned from a murine bone marrow library; source: recombinant (E. coli constructs in pGEX-6p-1 and pET-28a are described)
binding result: binds
